Measurements from paper PMC5034116 (Cell Research, 2016).

Target: the molecule itself
Assay: crystal structure

B1: NudC (residues 1-257, E178Q), Escherichia coli, active-site mutant (enzyme, UniProt P32664 1-257, looked up)
chain: MDRIIEKLDHGWWVVSHEQKLWLPKGELPYGEAANFDLVGQRALQIGEWQGEPVWLVQQQRRHDMGSVRQVIDLDVGLFQLAGRGVQLAEFYRSHKYCGYCGHEMYPSKTEWAMLCSHCRERYYPQIAPCIIVAIRRDDSILLAQHTRHRNGVHTVLAGFVEVGETLEQAVAREVMEQSGIKVKNLRYVTSQPWPFPQSLMTAFMAEYDSGDIVIDPKELLEANWYRYDDLPLLPPPGTVARRLIEDTVAMCRAEYE
B1 was tested, and the “stoichiometry N” value was 2.
